Data from IntAct's records for PubMed 38029384.

B1: Coiled-coil domain-containing protein 124 (Homo sapiens), Q96CT7 (parent)
chain: MPKKFQGENTKSAAARARRAEAKAAADAKKQKELEDAYWKDDDKHVMRKEQRKEEKEKRRLDQLERKKETQRLLEEEDSKLKGGKAPRVATSSKVTRAQIEDTLRRDHQLREAPDTAEKAKSHLEVPLEENVNRRVLEEGSVEARTIEDAIAVLSVAEEAADRHPERRMRAAFTAFEEAQLPRLKQENPNMRLSQLKQLLKKEWLRSPDNPMNQRAVPFNAPK

Assays:
npm_human NPM1, P06748 [1] = variants of: B1; conditions: with npm_human NPM1, P06748
npm_human NPM1, P06748 [2] = variants of: B1; conditions: with npm_human NPM1, P06748; remark: listed apart in the source

Sequence of npm_human NPM1, P06748 (P06748 whole entry): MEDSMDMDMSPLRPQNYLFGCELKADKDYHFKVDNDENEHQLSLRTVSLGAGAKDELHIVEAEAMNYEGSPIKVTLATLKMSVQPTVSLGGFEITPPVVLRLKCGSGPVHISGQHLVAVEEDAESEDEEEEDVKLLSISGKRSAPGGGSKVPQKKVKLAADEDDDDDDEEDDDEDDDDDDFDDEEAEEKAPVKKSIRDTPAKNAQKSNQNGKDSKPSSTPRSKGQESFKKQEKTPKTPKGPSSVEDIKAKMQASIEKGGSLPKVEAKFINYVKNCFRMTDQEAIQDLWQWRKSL

## S122A
npm_human NPM1, P06748 [1]
  effect of a mutation on the interaction: decreasing interaction strength
npm_human NPM1, P06748 [2]
  effect of a mutation on the interaction: disrupting interaction strength

## S141A
npm_human NPM1, P06748 [1]
  effect of a mutation on the interaction: decreasing interaction strength
npm_human NPM1, P06748 [2]
  effect of a mutation on the interaction: with no effect

## S122A;S141A
npm_human NPM1, P06748 [1]
  effect of a mutation on the interaction: decreasing interaction strength
npm_human NPM1, P06748 [2]
  effect of a mutation on the interaction: with no effect
